The results in this text go back to the supplement of paper PMC10126150.

± gives the standard deviation of the averaged measurements.
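Also: ATP exposure 15 min at 22 °C before imaging.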

The data set deals with ATP. As to the kind of experiment: switch fluorescence ratio, 500 uM ATP over buffer (Cy3 cluster intensity, sum of 5 cycles each) (fold (ratio)); higher = stronger signal-on switching upon ATP binding; sequences stand for … in TCGTCGGCAGCGTCAGATGTGTATAAGAGACAGTTTTTTTTTTTTTTTTTTTTTTTTT…TC. The note with it: aptamer strand: ATP DNA aptamer (quencher-CACCTGGGGGAGTATTGCGGAGGAAGG + anchor), 100 nM annealed; ATP concentration: 500 uM. Put shortly:
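Clusters carrying Cy3-labelled switching strands on a modified Illumina MiSeq flow-cell were annealed to 100 nM quencher-labelled ATP aptamer and imaged in selection buffer. They were imaged again after 15 min with 500 uM ATP at 22 °C, over five buffer/ATP cycles with NaOH stripping and re-annealing in between. For each cluster, the fluorescence ratio is the summed Cy3 intensity of the target cycles divided by that of the buffer cycles, averaged per switch-domain sequence. Clusters outside 100-1000 RFU were left out.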
As for TGAAAACGGG, the switch fluorescence ratio amounted to 1.022 ± 0.0095.

Regarding GCGGGGGGAT, the switch fluorescence ratio was 1.02 ± 0.017.

Regarding TTGTTTATCA, the switch fluorescence ratio is 0.9865 ± 0.0096. Next, AAGCGGCGTA: 1.01 ± 0.042; TGGTTTTGTT: 1.01 ± 0.058. TATGCGGACA: the switch fluorescence ratio worked out at 1.04 ± 0.027.

Turning to AGTGGCTTTT, the switch fluorescence ratio stood at 1.002 ± 0.0081. With GACACGGGGA, the switch fluorescence ratio amounted to 1.01 ± 0.041. Next, TTTGTTATTG: 1.3 ± 0.44; GATGAAAAAA: 1.02 ± 0.037. The result for ATTTGGTTTT reads 0.999 ± 0.04; that for CTTGAGTTAG, 1.015 ± 0.0066; that for CGCCAACAAC, 1.78 ± 0.036. Next, TACATGAAGG: 0.995 ± 0.019; TTTTATGTGG: 1.01 ± 0.04. On to GAGTTTGAAT, for which the switch fluorescence ratio is 0.969 ± 0.021. The result for GCCCGGCCAG reads 0.9693 ± 0.0062. Next, AAAGAAGCAT: 1.001 ± 0.0059. The result for ACGTAATGTC reads 1.25 ± 0.12; that for TTGCAAATTT, 1.79 ± 1.4; that for TGACTTGAGC, 1.01 ± 0.058. In the case of AAGGGGGAAG, the switch fluorescence ratio amounted to 0.971 ± 0.015. Next, GGGGATGCGA: 1.09 ± 0.1; AGAGTTAGGT: 1.021 ± 0.0047; TTGGTACTGA: 1.04 ± 0.049. The result for TTTTAAGGCT reads 0.982 ± 0.024. Next, TGTTGGGGAG: 0.972 ± 0.025; GGGGTAGACA: 1 ± 0.031. For TTAAGACGGG, the switch fluorescence ratio was 1.002 ± 0.0017. Next, AGGGGGCTCT: 1.02 ± 0.029. The result for AGGTAGTAAG reads 0.995 ± 0.031; that for TCTCAGTGTT, 1.028 ± 0.0064. As for GCTACTGGCC, the switch fluorescence ratio was 1.02 ± 0.039. As for TTGGTGTTCT, the switch fluorescence ratio was 1.08 ± 0.039.

AATCTAATTG: the switch fluorescence ratio worked out at 1.002 ± 0.0038. Next, TATTAAAAAT: 1.03 ± 0.047.

In the case of GTACTGTGTG, the switch fluorescence ratio stood at 1.001 ± 0.0037. Next, AAATATTATA: 1.02 ± 0.031; AACAGAGGGG: 1.01 ± 0.018. The result for GTTGGTATTG reads 1 ± 0.021; that for AGTAGCTCGG, 1.009 ± 0.0092. The result for AAAGGATGAG reads 0.979 ± 0.019; that for AGTCGAGCGT, 0.9976 ± 0.0034; that for ATAGGAGCAG, 1.01 ± 0.048. For the sequence CGATGGTGGC, the switch fluorescence ratio came out at 1.073 ± 0.0067. For the sequence AGTGAGCAGC, the switch fluorescence ratio is 1.04 ± 0.039. The result for TTTACGGTGC reads 1.25 ± 0.15; that for CGAAATCCTT, 1.05 ± 0.039; that for GGGCGCGGGA, 0.991 ± 0.015. Regarding AAAGTGGTCT, the switch fluorescence ratio was found to be 1 ± 0.015.

For the sequence GCGGGGGTTA, the switch fluorescence ratio was 0.994 ± 0.018. Next, GGGATTCGGA: 0.9499 ± 0.0088; TTTGGATGGT: 0.996 ± 0.02; ATGAGCGGCG: 0.9917 ± 0.0012.

In the case of TGTAGTTTTT, the switch fluorescence ratio came to 0.961 ± 0.025.

Consider CGGATGGGGG, for which the switch fluorescence ratio stood at 1.01 ± 0.046. Next, TTGAGGGGAT: 1.004 ± 0.0059. Next, GGAATGCCGG: 1.02 ± 0.021; TAGTTGAGCT: 0.9997 ± 0.0061.

As for ATGTTTTCCT, the switch fluorescence ratio turned out to be 1.0718 ± 0.00067. Next, ACATGTGCGT: 1.004 ± 0.01; ACATTCGACC: 1.11 ± 0.062; AGTGTAGGGA: 1.01 ± 0.029. Take TTTCCTTTGA: the switch fluorescence ratio stood at 1.06 ± 0.07. Next, TCGGGGTAAT: 1.03 ± 0.019.

Consider TACGTCCCCG, for which the switch fluorescence ratio turned out to be 1.03 ± 0.04.

As to TAAGGAGTTT, the switch fluorescence ratio amounted to 0.972 ± 0.016. The result for CGCTACGGTT reads 1.042 ± 0.0016; that for TGTAGATTTT, 0.981 ± 0.011. Consider CGGTGCTGGG, for which the switch fluorescence ratio was found to be 0.999 ± 0.04.

In the case of CGGGACGGGC, the switch fluorescence ratio is 1.04 ± 0.043. Turning to GGAAAGTGAT, the switch fluorescence ratio was found to be 1.2 ± 0.26.

TGGGGGTGAA: the switch fluorescence ratio was determined as 1.02 ± 0.018.

As to TTGGGGAAG, the switch fluorescence ratio is 0.9853 ± 0.0061. Next, AGAGTCGTGC: 0.997 ± 0.051; AAATAGTGTG: 1 ± 0.033; TATTTTTGTT: 1.05 ± 0.074.

Take GGGGTTCCGC: the switch fluorescence ratio is 1.05 ± 0.026.
